We go through three molecules from patent US12534534 (F STAR BETA, dated 2026).

Assay [1] deals with human CD137 on primary human CD8+ T cells (human, UniProt Q07011 24-255). Put plainly: cell-based or functional assay.
The target of a further assay is T1, human OX40-mFc (human, UniProt P43489 29-214).
T1 construct: produced in-house; negative control in the ELISA; also called human OX40-mFc-Avi; not shown: mFc part
T1 sequence: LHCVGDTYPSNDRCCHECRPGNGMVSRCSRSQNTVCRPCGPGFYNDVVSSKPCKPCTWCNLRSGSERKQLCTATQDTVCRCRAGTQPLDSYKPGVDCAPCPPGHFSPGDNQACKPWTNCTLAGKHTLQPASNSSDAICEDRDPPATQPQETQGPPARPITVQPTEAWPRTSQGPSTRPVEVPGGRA
Put plainly: ELISA on streptavidin plates, mAb 0.1 to 300 nM. As for the experimental part:
(§1) Blocking solution was discarded and a dilution series of anti-CD137 mAb concentrations (0.1 to 300 nM, 3-fold dilutions) was added and incubated for 1 hour at room temperature whilst shaking at 450 rpm. Plates were washed 3× with 300 µl PBS/Tween 0.05%. Goat anti-human IgG (Fc fragment) antibody conjugated to Horseradish Peroxidase (Sigma, A0170) was diluted 1:10000 in PBS and 90 µl was added to the wells. After incubation for 1 hour at 4° C. whilst shaking at 450 rpm, plates were washed 3× with 300 µl PBS/Tween 0.05%, 100 µl TMB substrate (eBioscience, 00-4201-56) was added to each well. The reaction was stopped between 2-10 minutes after addition of TMB by the addition of 50 µl 1M sulphuric acid solution. Optical density (OD) was read at 450-630 nm in a 96-well plate reader within 30 minutes of sulphuric acid addition and analysed using GraphPad Prism software (GraphPad Software, Inc.).
(In general: ELISA stands for enzyme-linked immunosorbent assay.)

The target in the next assay is T2, mFc-Avi (mouse, UniProt P01863 99-330 = IgG part).
T2 construct: mouse Fc domain with Avi tag; negative control in the ELISA
T2 chain: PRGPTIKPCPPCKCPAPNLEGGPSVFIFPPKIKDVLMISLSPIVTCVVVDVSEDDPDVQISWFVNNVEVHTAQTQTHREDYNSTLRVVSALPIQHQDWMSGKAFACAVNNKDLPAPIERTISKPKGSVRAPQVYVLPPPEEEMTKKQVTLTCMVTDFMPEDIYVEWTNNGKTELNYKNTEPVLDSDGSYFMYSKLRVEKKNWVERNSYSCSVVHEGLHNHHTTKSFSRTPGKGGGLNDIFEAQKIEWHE
Put plainly: ELISA on streptavidin plates, mAb 0.1 to 300 nM. As for the experimental part:
as §1

Another assay addresses T3, streptavidin (UniProt P22629 37-163, limits assumed).
T3 construct: negative control in the ELISA; also called Streptavidin plates (Thermo Scientific, 15500)
The experiment in a line: ELISA on streptavidin plates, mAb 0.1 to 300 nM. The method, then:
as §1

Assay [2] has as its target T4, cyno CD137 on DO11.10-cCD137 cells (cynomolgus, UniProt Q07011 24-255 (human entry)).
T4 construct: full-length cyno CD137 over-expressed on DO11.10 cells; also called cell surface-expressed cyno CD137
T4 chain: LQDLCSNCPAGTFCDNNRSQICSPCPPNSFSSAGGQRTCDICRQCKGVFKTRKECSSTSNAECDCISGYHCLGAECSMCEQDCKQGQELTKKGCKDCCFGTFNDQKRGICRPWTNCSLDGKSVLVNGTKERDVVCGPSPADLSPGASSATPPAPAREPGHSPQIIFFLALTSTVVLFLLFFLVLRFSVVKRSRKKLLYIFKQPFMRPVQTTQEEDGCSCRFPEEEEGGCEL
The experiment in a line: flow cytometry on DO11.10-cCD137 cells, GMFI vs concentration. The method, then: (§2) Non-specific binding was also assessed by testing binding to DO11.10 cells and HEK293 cells lacking CD137 expression.
(§3) Briefly, DO11.10, HEK293, DO11.10-hCD137 or DO11.10-cCD137 suspensions were prepared in PBS containing 2% BSA (Sigma, A7906) and seeded at 4×10^6 cell/ml with 50 µl/well in V-bottomed 96-well plates (Costar, 3897). mAb dilutions (1·10^-6-100 nM, 10-fold dilutions) were prepared at 2× the final concentration in triplicate in 1×DPBS (Gibco, 14190-094). […] The cells were washed once with PBS and resuspended in 100 µl of PBS containing DAPI (Biotium, 40043) at 1 µg/ml. The cells were analysed using a Canto II flow cytometer (BD Bioscience). Dead cells were excluded and the fluorescence in the FITC channel (488 nm/530/30) was measured. The geometric mean fluorescence intensity (GMFI) values were plotted vs the log concentration of antibody and the resulting curves were fitted using the log (agonist) vs response equation in GraphPad Prism.
For orientation: A flow cytometer gives signals particle by particle.

For assay [3], the target named is T5, human CD137 on DO11.10-hCD137 cells (human, UniProt Q07011 24-255).
T5 construct: full-length human CD137 over-expressed on DO11.10 cells by lentiviral transduction; also called cell surface-expressed human CD137
T5 sequence (Q07011 24-255): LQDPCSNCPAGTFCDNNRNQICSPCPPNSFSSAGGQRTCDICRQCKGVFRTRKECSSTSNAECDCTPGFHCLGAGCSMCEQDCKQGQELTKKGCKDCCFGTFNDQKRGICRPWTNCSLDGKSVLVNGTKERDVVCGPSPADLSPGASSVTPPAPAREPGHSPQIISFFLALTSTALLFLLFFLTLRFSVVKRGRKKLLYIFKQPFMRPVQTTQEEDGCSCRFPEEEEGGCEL
The experiment in a line: flow cytometry on DO11.10-hCD137 cells, GMFI vs concentration. As for the experimental part: as §2, §3

Numbering of substitutions follows the chain as printed.

Chain of human CD137 on primary human CD8+ T cells (Q07011 24-255): as above
T3 sequence (P22629 37-163 limits assumed): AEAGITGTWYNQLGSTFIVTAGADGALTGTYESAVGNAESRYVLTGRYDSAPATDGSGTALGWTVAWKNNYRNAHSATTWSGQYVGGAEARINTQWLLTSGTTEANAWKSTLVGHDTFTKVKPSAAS

B1: G1AA/FS30-10 (antibody, human IgG1, kappa, L234A L235A, V domains shown)
VH: EVQLLESGGGLVQPGGSLRLSCAASGFTFSSYDMSWVRQAPGKGLEWVSDIDPTGSKTDYADSVKGRFTISRDNSKNTLYLQMNSLRAEDTAVYYCARDLMVYGFDYWGQGTLVTVSS
VL: EIVLTQSPGTLSLSPGERATLSCRASQSVSSSYLAWYQQKPGQAPRLLIYGASSRATGIPDRFSGSGSGTDFTLTISRLEPEDFAVYYCQQSYSYPVTFGQGTKVEIKR
notes: human IgG1 with LALA mutation in CH2; also called FS30-10 mAb
For the molecule B1, the “Activity of non-crosslinked mAbs at 100 nM (hIL-2 pg/ml)” value (“Activity of non-crosslinked mAbs” for short) in assay [1] worked out at 497 pg/mL. Besides, in assay [1], the “EC50 (nM), hIL-2 release, primary human CD8+ T cell activation assay, crosslinked mAb” value (“EC50 (nM), hIL-2 release” for short) was 5.4 nM. Besides, the “Emax (hIL-2 pg/ml), crosslinked mAb” value in assay [1] is 8560 pg/mL. The binding result with human OX40-mFc, with mFc-Avi and in the assay with streptavidin was “no binding (tested: 300 nM)” throughout. Besides, the EC50 in assay [2] was 0.57 nM; in assay [3], 0.32 nM.

B2: G1AA/FS30-5 (antibody, human IgG1, kappa, L234A L235A, V domains shown)
VH: EVQLLESGGGLVQPGGSLRLNCAASGFTFSSYAMSWVRQAPGKGLEWVSAISGSGGSTYYADSVKGRFTISRDNSKNTLYLQMNSLRAEDTAVYYCARSYDKYWGSSMYSGMDYWGQGTLVTVSS
VL: EIVLTQSPGTLSLSPGERATLSCRASQSVSSSYLAWYQQKPGQAPRLLIYGASSRATGIPDRFSGSGSGTDFTLTISRLEPEDFAVYYCQQYYSYYPVTFGQGTKVEIKR
notes: human IgG1 with LALA mutation in CH2; also called FS30-5 mAb
In the case of B2, the “Activity of non-crosslinked mAbs” value in assay [1] came to 509 pg/mL. Besides, the “EC50 (nM), hIL-2 release” value in assay [1] was 3.2 nM. For the same molecule, the “Emax (hIL-2 pg/ml), crosslinked mAb” value in assay [1] was determined as 10900 pg/mL. In addition, the binding result with human OX40-mFc, with mFc-Avi and in the assay with streptavidin was “no binding (tested: 300 nM)” in each case. The values for the EC50 in assay [2] and in assay [3] were 0.45 nM and 0.24 nM, respectively.

B3: G1AA/FS30-16 (antibody, human IgG1, kappa, L234A L235A, V domains shown)
VH: EVQLLESGGGLVQPGGSLRLSCAASGFTFSNYAMHWVRQAPGKGLEWVSTIDPTDGATNYADSVKGRFTISRDNSKNTLYLQMNSLRAEDTAVYYCARSKYYTYMQYVALDYWGQGTLVTVSS
VL: B2 VL with Y92G, Y93S, S94R, Y95F, Y96F, V98I
notes: human IgG1 with LALA mutation in CH2; also called FS30-16 mAb
As for B3, in assay [1], the “Activity of non-crosslinked mAbs” value stood at 402 pg/mL. The “EC50 (nM), hIL-2 release” value in assay [1] came to 1.4 nM. In addition, the “Emax (hIL-2 pg/ml), crosslinked mAb” value in assay [1] amounted to 4840 pg/mL. The binding result with human OX40-mFc, with mFc-Avi and with streptavidin was “no binding (tested: 300 nM)” in each case. The half-maximal effective concentration (EC50) worked out at 0.36 nM in assay [2] and 0.21 nM in assay [3].

As usually defined, the EC50 is the concentration at which the effect is half-maximal. Read a low EC50 as higher potency in that assay.
